# Laboratory results reported in the RNAGym collection of RNA variant scans (doi:10.1093/molbev/msab373).
# B1: Azoarcus group I ribozyme (parent)
# chain: GUGCCUUGCGCCGGGAAACCACGCAAGGGAUGGUGUCAAAUUCGGCGAAACCUAAGCGCCCGCCCGGGCGUAUGGCAACGCCGAGCCAAGCUUCGGCGCCUGCGCCGAUGAAGGUGUAGAGACUAGACGGCACCCACCUAAGGCAAACGCUAUGGUGAAGGCAUAGUCCAGGGAGUGGCGAAAGUCACACAAACCGG
# Variants of: B1
# Test: reverse-splicing fitness (ratio to wild type); higher = more active; in vitro selection; Mg2+ level not given
# Summary of the method: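 An in vitro group I ribozyme library with randomized positions was T7-transcribed and gel-purified. In triplicate, 10 pmol RNA in EPPS pH 7.5 was reacted with 50 pmoles of a 30-nt RNA substrate for 1 h at 37 °C across several added MgCl2 levels (1–48 mM), then stopped with EDTA. Products were reverse transcribed from a substrate-complementary primer, PCR-amplified and sequenced (HiSeq 4000). Fitness is a variant's read proportion after selection over that before, normalised to wild type.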
row,Variant,reverse-splicing fitness
1,C82A A111U A145U U176C,0.134
2,C82A A111U A145U U176A,0.0937
3,C82A A111U A145U U176G,0.0281
4,C82A A111U A145U C150A C169U,0.0108
5,C82A A111U A145U C150A C169A,0.0092
6,C82A A111U A145U C150A C169G,0.00786
7,C82A A111U C150G U176A,0.00718
8,C82A A111U C150G U176G,0.00369
9,C82A A111U C150G U176C,0.015
10,C82A A111U A145U C169G U176G,0.00625
11,C82A A111U A145U C169G U176A,0.0127
12,C82A A111U A145U C169G U176C,0.0142
13,C82A A111U C150U,0.135
14,C82A A111U C150G,0.0198
15,C82A A111U C150A,0.0266
16,C82A A111U A145U C150G C169U U176C,0.0122
17,C82A A111U A145U C150G C169U U176A,0.00775
18,C82A A111U A145U C150G C169U U176G,0.00727
19,C82A A111U A145G C150A U176A,0.0206
20,C82A A111U A145G C150A U176G,0.0112
21,C82A A111U A145G C150A U176C,0.0448
22,C82A A111U A145U C150G C169G U176A,0.00742
23,C82A A111U A145U C150G C169G U176G,0.00651
24,C82A A111U A145U C150G C169G U176C,0.00625

row,Variant,reverse-splicing fitness
1,C82A A111U A145G C150G C169U U176A,0.0134
2,C82A A111U A145G C150G C169U U176C,0.0142
3,C82A A111U A145G C150G C169U U176G,0.00787
4,C82A A111U A145G C150G C169G U176A,0.0117
5,C82A A111U A145G C150G C169G U176C,0.0133
6,C82A A111U A145G C150G C169G U176G,0.00649
7,C82A A111U A145G C169A,0.0104
8,C82A A111U A145G C169U,0.0129
9,C82A A111U A145G C169G,0.0102
10,C82A A111U C150U C169G,0.0102
11,C82A A111U C150U C169A,0.0102
12,C82A A111U A145G C150G C169U,0.0101
13,C82A A111U A145G C150G C169A,0.0097
14,C82A A111U A145G C150G C169G,0.00774
15,C82A A111U C150G C169A U176C,0.0105
16,C82A A111U C150G C169A U176G,0.00757
17,C82A A111U C150G C169A U176A,0.0116
18,C82A A111U A145U C150U C169U,0.0124
19,C82A A111U A145U C150U C169A,0.00985
20,C82A A111U A145U C150U C169G,0.00969
21,C82A A111U C150G C169G,0.00756
22,C82A A111U C150G C169A,0.00953
23,C82A A111U C150G C169U,0.0101
24,C82A A111U C150G C169G U176A,0.00782

row,Variant,reverse-splicing fitness
1,C82A A111U C150G C169G U176C,0.00482
2,C82A A111U C150G C169G U176G,0.00641
3,C82A A111U A145G C150U C169G,0.00968
4,C82A A111U A145G C150U C169A,0.0109
5,C82A A111U A145G C150U C169U,0.0139
6,C82A A111U C150U C169A U176A,0.0158
7,C82A A111U C150U C169A U176G,0.00786
8,C82A A111U C150U C169A U176C,0.015
9,C82A A111U A145G C150G C169A U176C,0.0137
10,C82A A111U A145G C150G C169A U176A,0.0138
11,C82A A111U A145G C150G C169A U176G,0.0091
12,C82A A111U A145U,0.289
13,C82A A111U A145U C150U C169U U176C,0.0143
14,C82A A111U A145U C150U C169U U176A,0.0147
15,C82A A111U A145U C150U C169U U176G,0.00717
16,C82A A111U A145U C169A U176G,0.00655
17,C82A A111U A145U C169A U176C,0.0114
18,C82A A111U A145U C169A U176A,0.012
19,C82A A111U C150A C169G U176C,0.0266
20,C82A A111U C150A C169G U176G,0.00794
21,C82A A111U C150A C169G U176A,0.0202
22,C82A A111U A145U C150G C169U,0.00971
23,C82A A111U A145U C150G C169A,0.00877
24,C82A A111U A145U C150G C169G,0.00819

row,Variant,reverse-splicing fitness
1,C82A A111U C150G C169U U176C,0.0139
2,C82A A111U C150G C169U U176A,0.00699
3,C82A A111U C150G C169U U176G,0.00599
4,C82A A111U A145U C169G,0.00938
5,C82A A111U A145U C169A,0.00911
6,C82A A111U A145U C169U,0.0125
7,C82A A111U A145G C150U,0.222
8,C82A A111U A145G C150G,0.0263
9,C82A A111U A145G C169U U176A,0.0154
10,C82A A111U A145G C169U U176C,0.0157
11,C82A A111U A145G C169U U176G,0.00628
12,C82A A111U A145G U176G,0.0224
13,C82A A111U A145G U176A,0.0978
14,C82A A111U A145G U176C,0.151
15,C82A A111U C150U C169G U176G,0.00649
16,C82A A111U C150U C169G U176C,0.0182
17,C82A A111U C150U C169G U176A,0.0151
18,C82A A111U A145G C150U C169G U176A,0.0134
19,C82A A111U A145G C150U C169G U176C,0.0194
20,C82A A111U A145G C150U C169G U176G,0.00676
21,C82A A111U A145G C150A C169A U176C,0.0242
22,C82A A111U A145G C150A C169A U176A,0.0197
23,C82A A111U A145G C150A C169A U176G,0.00853
24,C82A A111U A145G C150U C169A U176G,0.00694

row,Variant,reverse-splicing fitness
1,C82A A111U A145G C150U C169A U176C,0.0162
2,C82A A111U A145G C150U C169A U176A,0.016
3,C82A A111U A145U C150A U176G,0.00989
4,C82A A111U A145U C150A U176C,0.0251
5,C82A A111U A145U C150A U176A,0.018
6,C82A A111U A145U C150G U176A,0.01
7,C82A A111U A145U C150G U176G,0.00528
8,C82A A111U A145U C150G U176C,0.0189
9,C82A A111U C150A C169A U176G,0.00811
10,C82A A111U C150A C169A U176A,0.0188
11,C82A A111U C150A C169A U176C,0.0197
12,C82A A111U A145G C169G U176G,0.00674
13,C82A A111U A145G C169G U176C,0.0304
14,C82A A111U A145G C169G U176A,0.023
15,C82A A111U A145U C150A C169A U176A,0.0158
16,C82A A111U A145U C150A C169A U176G,0.00765
17,C82A A111U A145U C150A C169A U176C,0.0138
18,C82A A111U A145G C169A U176C,0.0292
19,C82A A111U A145G C169A U176A,0.0221
20,C82A A111U A145G C169A U176G,0.00574
21,C82A A111U C150A C169U U176G,0.00835
22,C82A A111U C150A C169U U176A,0.0167
23,C82A A111U C150A C169U U176C,0.0171
24,C82A A111U A145U C150A,0.0253

row,Variant,reverse-splicing fitness
1,C82A A111U A145U C150G,0.0256
2,C82A A111U A145U C150U,0.181
3,C82A A111U A145U C150A C169U U176G,0.00771
4,C82A A111U A145U C150A C169U U176C,0.0127
5,C82A A111U A145U C150A C169U U176A,0.0147
6,C82A A111U A145G C150G U176C,0.0188
7,C82A A111U A145G C150G U176G,0.00688
8,C82A A111U A145G C150G U176A,0.00963
9,C82A A111U A145G C150U U176C,0.115
10,C82A A111U A145G C150U U176G,0.0191
11,C82A A111U A145G C150U U176A,0.0694
12,C82A A111U A145G C150A C169U U176A,0.0158
13,C82A A111U A145G C150A C169U U176C,0.0161
14,C82A A111U A145G C150A C169U U176G,0.00831
15,C82A A111U A145U C150A C169G U176C,0.0188
16,C82A A111U A145U C150A C169G U176G,0.00712
17,C82A A111U A145U C150A C169G U176A,0.0157
18,C82A A111U A145U C150U U176C,0.0933
19,C82A A111U A145U C150U U176G,0.0184
20,C82A A111U A145U C150U U176A,0.0636
21,C82A A111U A145G C150A C169G,0.00916
22,C82A A111U A145G C150A C169U,0.0111
23,C82A A111U A145G C150A C169A,0.0117
24,C82A A111U A145G C150U C169U U176A,0.0147

row,Variant,reverse-splicing fitness
1,C82A A111U A145G C150U C169U U176C,0.0148
2,C82A A111U A145G C150U C169U U176G,0.00683
3,C82A A111U A145U C150U C169A U176G,0.00727
4,C82A A111U A145U C150U C169A U176C,0.0108
5,C82A A111U A145U C150U C169A U176A,0.0148
6,C82A A111U A145G C150A C169G U176A,0.0183
7,C82A A111U A145G C150A C169G U176C,0.027
8,C82A A111U A145G C150A C169G U176G,0.00681
9,C82A A111U A145U C150U C169G U176C,0.0156
10,C82A A111U A145U C150U C169G U176G,0.00663
11,C82A A111U A145U C150U C169G U176A,0.0142
12,C82A A111U A145U C169U U176G,0.00541
13,C82A A111U A145U C169U U176C,0.0139
14,C82A A111U A145U C169U U176A,0.0142
15,C82A A111U A145U C150G C169A U176C,0.0109
16,C82A A111U A145U C150G C169A U176G,0.00651
17,C82A A111U A145U C150G C169A U176A,0.0106
18,C82A A111U C150A U176G,0.00995
19,C82A A111U C150A U176C,0.0292
20,C82A A111U C150A U176A,0.0197
21,C82A A111U C150A C169A,0.0117
22,C82A A111U C150A C169G,0.00884
23,C82A A111U C150A C169U,0.0125
